Experimental data published in the supplement of paper PMC12042874.
± gives the uncertainty stated by the source.

Test: amyloid nucleation score (Sup35N fusion, yeast selection) (log enrichment); library NNK3; higher = more nucleation; inactive = no reads after selection
How it was run: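 After 24 hours of induction with 100 μM copper sulfate, psi-negative yeast expressing peptides of 20 random codons fused to Sup35N were grown for 7 days at 30°C on medium lacking adenine and uracil. Input and output plasmid inserts were sequenced with Illumina, and sequences with under 100 input reads were discarded. Scores for nucleation are the DiMSum log enrichment of output over input reads, centred on the mode score of non-aggregating sequences.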

| Substance | amyloid nucleation score |
| --- | --- |
| VMYVVYFHELVYYR | inactive |
| VNCQCSSEWCHKNSVYFIRY | 2.59 ± 0.087 |
| VNDVLASLTLCMWLVEWGMK | inactive |
| VNEIRDILLVSYSKFRAWGQ | 1.2 ± 0.13 |
| VNGFRVHWERPEHCYSVLML | inactive |
| VNLEDGSGDSCKDNCNGERF | -0.821 ± 0.84 |
| VNLGDGHVDDSIASQDMWHK | inactive |
| VNLITREHLKKGSMNNFIAN | inactive |
| VNNNYEVCNDRDSCPLINFC | inactive |
| VNPIERWA | inactive |
| VNVIDLFGFQPSNRLTGNVR | inactive |
| VNVTIGIYKRHRYLWSGIAM | inactive |
| VNWRVRWIYSILGKS | inactive |
| VPGMSAVCKMGLLLDVGVHE | inactive |
| VPPVVSAP | 1.05 ± 0.12 |
| VPRVSSTQDCNRLILRKVCL | inactive |
| VQGIPELALMLSRARGRGV | inactive |
| VQLLDRNEIFGVWGSIELLQ | inactive |
| VQLPVIVSAPPI | -0.421 ± 1.1 |
| VQPSFTMYMEFSCACVAMQL | -0.423 ± 0.49 |
| VQVMETEMRSVVA | inactive |
| VQYNHLRVVSHDVNENGEPR | inactive |
| VRDFGLPTWAQLAWMYNANG | -0.229 ± 1.1 |

| Substance | amyloid nucleation score |
| --- | --- |
| VREFTFYDV | inactive |
| VRESAWGLYNRYFSVFSAVV | inactive |
| VRGIAIACWSQFCNWRICCR | -0.231 ± 0.82 |
| VRGNYRNSFACRVLNHDQFW | inactive |
| VRLNALIHDIVMMVWGTMHG | inactive |
| VRLSKHMLVIDRGLKQLVIY | inactive |
| VRLYYSKPRLKRGDSCVEKY | inactive |
| VRMRDFKENARRMVP | inactive |
| VRMSRYSEWQDFNIPIEVIV | 0.776 ± 0.16 |
| VRMTAIFLNLKVWQSNMFVV | inactive |
| VRNLLKMTFR | inactive |
| VRQWSTFASLMYATENGVNN | inactive |
| VRRDLGFFSRNVT | inactive |
| VRRKDSNSCVSSHTASQSGW | inactive |
| VRSARRQAGELEGFYCLYQV | inactive |
| VRSKLYGPDVYPTHLGTAVM | inactive |
| VRSQGLHRRVFFIATGIKLG | inactive |
| VRSTYGNKGFVSQRGLQFSP | inactive |
| VRTRWFIAPVCVARGSLCLV | inactive |
| VSAFFRSKG | inactive |
| VSCMLLSRDLCLQSFIWMLL | inactive |
| VSDILADCPIIRPGGYCCVS | inactive |
| VSDLEERSSILG | inactive |

| Substance | amyloid nucleation score |
| --- | --- |
| VSEFRRVYFSAQFSRVGNSC | inactive |
| VSELPSACDNYIYCCNG | 0.326 ± 0.2 |
| VSGLFDVTLRGWYG | inactive |
| VSGSFVYLLCNS | inactive |
| VSLQLLWNPMLSYFTFQVGR | 1.16 ± 0.19 |
| VSMCNLNGVLPLNLFRLGLC | inactive |
| VSNLGCCKALSCGMSYRVCW | inactive |
| VSPRRGHNVYLIVAARWCVA | inactive |
| VSRVSLKRRYALM | -1.13 ± 2.5 |
| VSTRFFSACTLHFQSSMPYC | inactive |
| VSYLVCIDWVCPSGQWNAFW | 1.52 ± 0.11 |
| VSYRCSTICTNLVITVCLCD | 0.25 ± 0.34 |
| VSYTYAGYSIRYIVFSS | inactive |
| VTELDEWSGIVVEGYNACSS | inactive |
| VTHCSVFHLGNTWLVQLWWY | -0.513 ± 1.3 |
| VTNQSFDQPESLVEM | inactive |
| VTSNSDRT | inactive |
| VTVQLCSNLIMGTWRTRNVL | inactive |
| VTVRKFMVSLWSGGPTWDGR | inactive |
| VVATILLVHPPVKHWSCDLM | -0.859 ± 0.73 |
| VVCDNYG | 0.607 ± 0.23 |
| VVCLLALKIYDMLCRCQDVV | inactive |
| VVFWNFTRMLCLG | inactive |

| Substance | amyloid nucleation score |
| --- | --- |
| VVGQKTIVGTLIHFSFKVLA | 1.26 ± 0.14 |
| VVHSGWKSLDNLPHLRDVVT | inactive |
| VVILWGR | inactive |
| VVIVLLKFR | inactive |
| VVLQDPGSLYEPRSHGTWFT | inactive |
| VVLVFLRVTRYPSQKMVSAL | inactive |
| VVMVLRVLLWWFRTSIMSRK | 0.467 ± 0.19 |
| VVMWAPLRYDFKSKDRAVES | inactive |
| VVPIVWHTGSSRVYTEGVLM | -0.65 ± 1.3 |
| VVRYHSMYKDCYFLKRFVIL | inactive |
| VVRYPSMKE | inactive |
| VVVLYFVSHWTNRMSYSTRL | inactive |
| VWCPRDFFVSFVPCQ | inactive |
| VWIWWEDSGITCLGYMVLDF | inactive |
| VWLRGFQLGMDDFLWRVSGC | inactive |
| VWNFFSMGSFSVDC | 1.28 ± 0.087 |
| VWNMSASIKLQRMSAF | inactive |
| VWQRAKSSTIGPLIW | inactive |
| VWSTGRLLRGKSWELISNDT | inactive |
| VWTGWSKRGSSVA | inactive |
| VYAKVMSCGYGQRCVMEWFE | inactive |
| VYCLFVTCLKGINQWMHDKS | inactive |
| VYDNNYINFRSLLYMTKVSN | inactive |

| Substance | amyloid nucleation score |
| --- | --- |
| VYFRVFCFVSLCGVY | -0.548 ± 0.9 |
| VYFSDVV | inactive |
| VYHLQLLVGVRGLNPRCAQE | inactive |
| VYINVNDVALKHRFLKPV | inactive |
| VYIVSDTRMATASFG | -0.773 ± 1.3 |
| VYKWSNVLM | inactive |
| VYMNGIKVKDGLSTYWVPRE | -0.161 ± 0.69 |
| VYNIDTRNISFMSASNRTLS | inactive |
| VYPCKIFCVFVVAVILFFSL | inactive |
| VYQQSWQVLDFVRWDTERME | inactive |
| VYRERPMSKEGRCIEWHNLA | inactive |
| VYTGHVGLFV | inactive |
| VYVWSG | inactive |
| VYWFRYRSIGTAAS | inactive |
| VYWRTVFNLRLVLKSYGAMR | inactive |
| VYYYKMTGKVYMSLYMGKLL | inactive |
| WACCGICSCL | 2.02 ± 0.094 |
| WACIQK | inactive |
| WALWICC | 0.83 ± 0.13 |
| WANNSCAIRGNNSPMGGSVA | inactive |
| WARIYKMLIF | inactive |
| WCAVMPFRSVTSNVIFDLSV | inactive |
| WCFHVKTSSLVLSRQWEPLS | inactive |

| Substance | amyloid nucleation score |
| --- | --- |
| WCSGLPGLNRWSSTIPICCY | inactive |
| WCTAAM | inactive |
| WCYDDGQA | inactive |
| WDFRV | inactive |
| WDGLHVCLKSIIGGNSGLEK | inactive |
| WDRSMMIAIDD | inactive |
| WEELDYNSDPLLAGSVTDYM | inactive |
| WEGMNNKIRAYAYIATLVYT | inactive |
| WELSRYVRGLLFEFTLCLFV | inactive |
| WETLLKPWQA | inactive |
| WFASNPIMLPSFYLIPWKRT | inactive |
| WFDFHA | 0.9 ± 0.25 |
| WFDNRGLSFPYVYLLREHGK | 1.13 ± 0.11 |
| WFLVVVTFGWSIGQGQVGA | -0.527 ± 1.1 |
| WFSPRDVNYSREVFKANTLT | inactive |
| WGEPIVLDLSSFFDLVDRHG | inactive |
| WGFRRT | inactive |
| WGQCNELTMFFRFFLTFYIA | inactive |
| WGQMR | 0.456 ± 0.37 |
| WGTFIKSFQRLVKMVLLSMP | inactive |
| WGTRLWIVVQIGQEYVLLVR | -0.234 ± 1.1 |
| WHAFRLMWDSNMLLLRGSVV | inactive |
| WHTSSQVSEGLEHAYVCKFE | inactive |

| Substance | amyloid nucleation score |
| --- | --- |
| WILLCIRRRMFCRGMCTINN | inactive |
| WINNIAPPYGQ | inactive |
| WIRSNATFNATGVKFSSTCH | inactive |
| WIWLGCPSVMSEEYMSDFHI | inactive |
| WKFWVAC | inactive |
| WKYDKGNFRALVW | inactive |
| WLEDTSSTDF | 0.348 ± 0.22 |
| WLGMCPLLTVVLTGIFLTPF | 0.487 ± 0.2 |
| WLHTCRGSMDW | inactive |
| WLKAEGWIIILSSATRPG | inactive |
| WLLHLIYD | inactive |
| WLMRARGYGNVRSPVVFGKL | inactive |
| WLSDNSSNDLQYHYSSSKIM | inactive |
| WLSYIDGSKVELIVQAW | inactive |
| WLWISMVYCHLKDIRIIVGN | inactive |
| WMFGQSIAALFSWGTVCGLV | inactive |
| WMMDEMLVFLTH | inactive |
| WMRVPRMWEGKANFISG | inactive |
| WNFGFGVWRFTAGG | 1.33 ± 0.067 |
| WNLYCAFSPDYRLNIWTLQI | inactive |
| WNNYI | inactive |
